Where no end group is shown, it is not given here.
T1: armadillo (ARM) repeat domain of human β-catenin (residues 134–671) (human, UniProt P35222 134-671)
T1 construct: two residues left at the N-terminus after thrombin cleavage of GST; β-catenin, human, armadillo repeat domain, residues 134-671; plasmid a gift from W. I. Weis; source: E. coli C41, purified (glutathione-Sepharose, thrombin cleavage on the resin, Mono-Q); not shown: GST, N-terminal, cleaved
T1 sequence: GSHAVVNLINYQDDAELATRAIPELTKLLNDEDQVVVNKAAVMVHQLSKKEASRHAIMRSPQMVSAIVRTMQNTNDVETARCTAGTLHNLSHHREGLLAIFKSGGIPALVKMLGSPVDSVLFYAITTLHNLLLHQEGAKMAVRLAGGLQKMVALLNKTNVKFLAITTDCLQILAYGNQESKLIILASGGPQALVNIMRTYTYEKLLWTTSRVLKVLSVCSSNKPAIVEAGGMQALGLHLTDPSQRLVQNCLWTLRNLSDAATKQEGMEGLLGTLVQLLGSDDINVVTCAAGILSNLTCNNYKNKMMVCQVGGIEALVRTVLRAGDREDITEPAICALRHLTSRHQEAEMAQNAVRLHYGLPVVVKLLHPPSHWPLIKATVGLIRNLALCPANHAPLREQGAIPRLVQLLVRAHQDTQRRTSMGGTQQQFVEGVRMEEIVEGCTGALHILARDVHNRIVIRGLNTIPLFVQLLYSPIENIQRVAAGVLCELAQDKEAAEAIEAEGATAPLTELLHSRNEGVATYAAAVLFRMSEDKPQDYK


Key:
[1] = target: armadillo (ARM) repeat domain of human β-catenin (residues 134–671) (human) (UniProt P35222); test: other fluorescence titration; competition: 20 nM Alexa-488-APCbc and 200 nM β-catenin incubated 30 min, then unlabelled APCbc variants titrated; PBS, 1 mM DTT; 25°C
[2] = target: T1, armadillo (ARM) repeat domain of human …; test: fluorescence polarisation; fluorescence anisotropy; β-catenin titrated into 10 nM fluorescein-labelled APC construct; PBS, 1 mM DTT; 15°C; adjusted anisotropy fitted to a Hill equation; details: both partners purified
[3] = target: T1, armadillo (ARM) repeat domain of human …; test: stopped-flow fluorescence; association: 25 nM fluorescein-labelled APC mixed 1:1 by volume with 250-2,000 nM β-catenin (pseudo first-order); dissociation: pre-formed 1:1 complex (200 nM) mixed with 10 times molar excess of the same APC construct; PBS, 1 mM DTT; 15°C; details: both partners purified
[4] = target: T1, armadillo (ARM) repeat domain of human …; test: fluorescence polarisation; fluorescence anisotropy; β-catenin titrated into 10 nM fluorescein-labelled APC construct; PBS, 1 mM DTT; 15°C; adjusted anisotropy fitted to a Hill equation; details: both partners purified; remark: listed apart in the source

Molecule | fold increase in affinity (IC50) against APCbc [1] | Kd [2] | other results
APCbc S1505E (S2), unlabelled (from UniProt P25054 1483-1533) (domain or fragment) | 5 fold | – | –
APCbc S1507E (S3), unlabelled (from UniProt P25054 1483-1533) (domain or fragment) | 30 fold | – | –
GSPDADTLLHFATESTPDGFSC(fluorescein‑maleimide) (domain or fragment, two residues left at the N-terminus after thrombin cleavage of GST; adenomatous polyposis coli (APC), R3 region, subdomain b, residues 1483-1502; source: E. coli C41, purified (glutathione-Sepharose, thrombin cleavage on the resin, differential filtration); not shown: GST, N-terminal, cleaved) [APCb, lysine-binding domain b of APC R3, fluorescein-labelled at Cys 1501] | – | 246 nM | –
APCabc D1486S, fluorescein-labelled at Cys 1501 (domain or fragment) SGPKQAAVNAAVQRVQVLPDASTLLHFATESTPDGFSC(fluorescein‑maleimide)SSSLSALSLDEPFIQKDVELRIMPPVQEND | – | 2050 nM | –
GSSGPKQAAVNAAVQRVQVLPDADTLLHFATESTPDGFSC(fluorescein‑maleimide) (domain or fragment, two residues left at the N-terminus after thrombin cleavage of GST; adenomatous polyposis coli (APC), R3 region, subdomains a (1465-1483) and b (1483-1502); source: E. coli C41, purified (glutathione-Sepharose, thrombin cleavage on the resin, differential filtration); not shown: GST, N-terminal, cleaved) [APCab, APC R3 subdomains a and b, fluorescein-labelled at Cys 1501] | – | 89.9 nM | kon [3]: 1.33e+07 M⁻¹ s⁻¹
APC R3 construct with E1494T (domain or fragment, not fully specified) SGPKQAAVNAAVQRVQVLPDADTLLHFATTSTPDGFSC(fluorescein‑maleimide)SSSLSALSLDEPFIQKDVELRIMPPVQEND | – | – | Kd [4]: > 5000 nM
